Numbering of substitutions follows the chain as printed. Names may count otherwise.
Tests used:
MRIP^724-878 [1] = target: T1, MRIP^724-878 (Homo sapiens, UniProt Q6WCQ1); test: SPR, MYPT1 peptides as analytes over immobilized MRIP^724-878; type: binding; conditions: 25°C, pH 7.4, CCLR 167–1 μM, CC 318–10 μM, LR 569–5 μM
T1 construct: MRIP^724-878 (residues 724–878; CC2-CC4); made in house; host or cells: Escherichia coli BL21 (DE3)
T1 sequence (Q6WCQ1 725-879): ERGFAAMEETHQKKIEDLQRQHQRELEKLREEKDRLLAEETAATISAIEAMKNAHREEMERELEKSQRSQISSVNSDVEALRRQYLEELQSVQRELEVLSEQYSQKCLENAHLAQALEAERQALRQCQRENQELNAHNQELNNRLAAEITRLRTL
Method: To corroborate the results from AUC studies, SPR was employed. […] Equilibrium K d values were obtained by nonlinear curve fitting of reference-corrected curves using the steady-state affinity fitting model in BIAevaluation version 4–1.
Analytes CCLR, CC, LR: Interactions between analytes, CCLR (167–1 μM), CC (318–10 μM), and LR (569–5 μM) with immobilized ligand, MRIP^724-878 (1800 RU) after correction for nonspecific binding using G-actin (2230 RU). Shown is a representative out of 9 experiments for CCLR and 8 for LR in each, duplicates or triplicates. Insets show fittings of steady-state affinity. Ligand LR: Interaction of analyte, MRIP^724-878 (85.6–0.7 μM) with immobilized ligand, LR (244.8 RU) after correction for nonspecific binding using a nebulin-derived peptide (600 RU). Shown is a representative out of 6 experiments.
Binding analyses of SPR were conducted on a Biacore 3000 (GE Healthcare) at 25°C. Sensor chips and reagents for immobilization (1-ethyl-3-(3-dimethylaminopropyl) carbodiimide, N-hydroxyl-succinimide, and ethanolamine) were purchased from GE Healthcare. Peptides were immobilized onto a CM5 sensor chip at 232–5841 resonance units (RU) using amine coupling. Binding studies were done using two-fold serial dilutions of the peptides in 50 mM potassium phosphate buffer (pH 7.4) containing 100 mM KCl. […]

[2] = AUC of MYPT1 peptides alone (concentration dependence, self-association); type: physicochemical; conditions: CC alone, 107 μM and 3-, 9-fold dilutions, MRIP^724-878 alone, 50 μM and 3-, pH 7.4, 20°C
Text: (§1) To determine the minimal MRIP-binding region of MYPT1, AUC was employed to examine interactions between sub-domains of CCLR, CC (residues 924–990) and LR (residues 991–1030) with MRIP^724-878 (Fig 4A). CC is the putative coiled coil domain and LR contains 16 upstream amino acid residues (residues 991–1006) in addition to the leucine repeat (residues 1007–1028). MRIP^724-878 was chosen because of its good fit to a single component, single-species model. […] Global fitting of the mixture to a two-component model produced a good fit and the RMSD of the fit was 0.010 (Fig 4B; Fitting of CC).
Fig 4 LR contains sufficient residues for the MYPT1/MRIP interaction. […] CC; Concentration-normalized time derivative g(s*) plots of CC, MRIP^724-878, and equimolar mixtures of the two peptides: Black filled-in circles, an original CC alone (107 μM); dark gray filled-in circles, a 3-fold dilution of CC alone; light gray filled-in circles, a 9-fold dilution of CC alone; black filled-in triangles, an original MRIP^724-878 alone (50 μM); dark gray filled-in triangles, a 3-fold dilution of MRIP^724-878 alone; light gray filled-in triangles, a 9-fold dilution of MRIP^724-878 alone; a black line, an original equimolar mixture of MRIP^724-878/CC (50 μM each): a dark gray line, a 3-fold dilution of the mixture; a light gray line, a 9-fold dilution of the mixture. […]

MRIP^724-878 [3] = target: T1, MRIP^724-878; test: AUC interaction of MYPT1 peptides (CC, LR and LR mutants) with MRIP^724-878; type: binding; conditions: equimolar mixture (CC: 50 μM each) and dilutions, pH 7.4, 100 mM KCl, 20°C
Text: as §1
The coiled coil is a common protein-protein interaction domain. The MRIP peptides in this study have putative coiled coil domains and are α-helical. In contrast, the MYPT1 peptide, LR is not α-helical even though it contains the leucine repeat. Thus, we hypothesized that charged residues of MYPT1 might participate in the MYPT1/MRIP interaction with its leucine residues. We generated various LR peptides representing mutations in charged residues (Fig 6A) and examined their bindings to MRIP^724-878 (Fig 6B).
Fig 6 Glutamic acids within LR enhance the MRIP-binding affinity. (A) Amino acid sequences of the wild-type LR (WT-LR) and mutant LR peptides. Charged residues are in bold, the leucine repeat is in Italic, and substitution mutations are underlined. (B) Time derivative s*lg(s*) graphs: Line, MRIP^724-878 alone (50 μM); filled-in circles, original mixture of MRIP^724-878/each mutant LR peptide (50 μM each except for R992D/R993D and E996K whose mixtures consisted of excess amount of the mutant LR peptides); open circles, a three-fold dilution of the original mixture. The molar mass of the complex differs slightly from that of MRIP^724-878 dimer (37.9 kDa vs 37.4 kDa), and thus the shift in the main peak position is not easily discernable in many cases.
The cDNA fragment encoding MRIP peptides were amplified using a full-length MRIP cDNA as a template with the following primer pairs: MRIP^545-878, 5’-[…]/5’[…]; MRIP^724-878, 5’-[…]/5’-[…]; MRIP^724-837, 5’-[…]/5’-[…]. The PCR products were ligated into pCR2.1-TOPO using the TA cloning system and sequenced in both directions. The IMPACT™ (Intein Mediated Purification with an Affinity Chitin-binding Tag) Kit (New England BioLabs) was used to express peptides in bacteria to obtain tag-free peptides. The PCR amplicon encoding MRIP peptides were fused in frame to the chitin binding domain of pTYB12 vector utilizing the NdeI/EcoRI restriction sites. The expression vectors for the MYPT1 peptides, CCLR (residues 924–1030), CC (residues 924–990), and LR (residues 991–1030) were constructed as described: In the reference literature, CCLR and LR were named CCLZ and LZ, respectively. Recombinant peptides were produced in Escherichia coli strain BL21 (DE3) and purified using chitin beads according to the manufacturer's protocol. For further purification, the eluent from chitin beads was loaded on a Vydac C8 reversed phase column and subjected to HPLC using an acetonitrile gradient. Purity and identity of the peptides were confirmed by polyacrylamide gel electrophoresis (PAGE) and mass spectrometry. For the mutagenesis study of LR, the wild-type and mutant LR peptides were synthesized, purified by reverse-phase HPLC, and lyophilized to dryness at the peptide core in Boston Biomedical Research Institute.
Sedimentation velocity experiments were done on a Beckman Instruments Optima XL-I analytical ultracentrifuge equipped with Rayleigh optics. The cells were equipped with sapphire windows and 12 mm charcoal-filled Epon centerpieces. Apparent sedimentation coefficient distribution patterns were computed by the time derivative method. Peptides were dialyzed against 50 mM potassium phosphate buffer (pH 7.4) containing 100 mM KCl, and 1 mM DTT at 4°C overnight and then subjected to AUC at 50,000 rpm and 20°C. […]

[4] = target: T2, MRIP^724-878 (myosin phosphatase-RhoA interacting protein, residues 724–878; CC2-CC4) (UniProt Q6WCQ1 724-878); test: SPR; Biacore 3000, 25°C; LR immobilised (244.8 RU) by amine coupling on CM5, analyte MRIP^724-878 (85.6–0.7 μM); reference surface a nebulin-derived peptide; 50 mM potassium phosphate pH 7.4, 100 mM KCl; steady-state affinity fit; conditions: both partners purified
T2 construct: Tight homodimer in solution by AUC; the forward primer puts an NdeI ATG before the codons GAGCGAGGGTTTGCAGCAATG; source: E. coli BL21 (DE3), purified (chitin beads, C8 reversed-phase HPLC)
T2 sequence (looked up): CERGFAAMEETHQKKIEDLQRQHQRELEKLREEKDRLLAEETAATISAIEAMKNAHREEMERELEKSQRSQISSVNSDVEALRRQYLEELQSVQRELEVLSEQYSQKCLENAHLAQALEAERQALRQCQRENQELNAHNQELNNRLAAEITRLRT

[5] = target: T2, MRIP^724-878 (myosin phosphatase-RhoA …); test: SPR; Biacore 3000, 25°C; MRIP^724-878 immobilised (1800 RU) by amine coupling on CM5, analytes CCLR (167–1 μM), CC (318–10 μM), LR (569–5 μM); reference surface G-actin; 50 mM potassium phosphate pH 7.4, 100 mM KCl; steady-state affinity fit; conditions: both partners purified
MRIP = system: MRIP; parameters: method as in PMID 16243315; conditions: double point mutations in CC5; ref [12]; cited from earlier work

B1: CC: sub-domain of CCLR, residues 924–990; the putative coiled coil domain (protein, UniProt Q6WCQ1 924-990, looked up, fragment)
chain: KDELQTALRDKKYASDKYKDIYTELSIAKAKADCDISRLKEQLKAATEALGEKSPDSATVSGYDIMK
Which results are given for B1?
complex formation with immobilized MRIP^724-878 (MRIP^724-878 [1]): did not; concentration dependence of g(s*) curves [2]: superimposable, indicating concentration-independence; binding to MRIP^724-878 (g(s*) curves) (MRIP^724-878 [3]): no binding

B2: LR, leucine repeat region of MYPT1 (residues 991–1030) (peptide, UniProt O14974 991-1030, looked up)
chain: ERRISEMEEELKMLPDLKADNQRLKDENGALIRVISKLSK
notes: no result of its own is told for it; also called WT-LR; source: E. coli BL21 (DE3), purified (chitin beads, C8 reversed-phase HPLC)
What does the source list for B2?
Kd [4]: 40 µM; Kd [5]: 195 µM

B3: L905P/I912P: MRIP mutation employed by Mulder et al; double point mutation in CC5 (protein, UniProt Q6WCQ1 2-1025, looked up, variant L905P I912P)
Myosin phosphatase …: SAAKENPCRKFQANIFNKSKCQNCFKPRESHLLNDEDLTQAKPIYGGWLLLAPDGTDFDNPVHRSRKWQRRFFILYEHGLLRYALDEMPTTLPQGTINMNQCTDVVDGEGRTGQKFSLCILTPEKEHFIRAETKEIVSGWLEMLMVYPRTNKQNQKKKRKVEPPTPQEPGPAKVAVTSSSSSSSSSSSIPSAEKVPTTKSTLWQEEMRTKDQPDGSSLSPAQSPSQSQPPAASSLREPGLESKEEESAMSSDRMDCGRKVRVESGYFSLEKTKQDLKAEEQQLPPPLSPPSPSTPNHRRSQVIEKFEALDIEKAEHMETNAVGPSPSSDTRQGRSEKRAFPRKRDFTNEAPPAPLPDASASPLSPHRRAKSLDRRSTEPSVTPDLLNFKKGWLTKQYEDGQWKKHWFVLADQSLRYYRDSVAEEAADLDGEIDLSACYDVTEYPVQRNYGFQIHTKEGEFTLSAMTSGIRRNWIQTIMKHVHPTTAPDVTSSLPEEKNKSSCSFETCPRPTEKQEAELGEPDPEQKRSRARERRREGRSKTFDWAEFRPIQQALAQERVGGVGPADTHEPLRPEAEPGELERERARRREERRKRFGMLDATDGPGTEDAALRMEVDRSPGLPMSDLKTHNVHVEIEQRWHQVETTPLREEKQVPIAPVHLSSEDGGDRLSTHELTSLLEKELEQSQKEASDLLEQNRLLQDQLRVALGREQSAREGYVLQATCERGFAAMEETHQKKIEDLQRQHQRELEKLREEKDRLLAEETAATISAIEAMKNAHREEMERELEKSQRSQISSVNSDVEALRRQYLEELQSVQRELEVLSEQYSQKCLENAHLAQALEAERQALRQCQRENQELNAHNQELNNRLAAEITRLRTLLTGDGGGEATGSPLAQGKDAYELEVLPRVKESEPQYLKQEISSLKDELQTALRDKKYASDKYKDIYTELSIAKAKADCDISRLKEQLKAATEALGEKSPDSATVSGYDIMKSKSNPDFLKKDRSCVTRQLRNIRSKSVIEQVSWDT
With B3 as the molecule, how does the oligomerization (MRIP) read?
The oligomerization was “little oligomerization”.

B4: I919P/L926P: MRIP mutation employed by Mulder et al; double point mutation in CC5 (protein, UniProt Q6WCQ1 2-1025, looked up, variant I919P L926P)
Myosin phosphatase …: B3 Myosin phosphatase … with P905L, P912I, I919P, L926P
With B4 as the molecule, how does the oligomerization (MRIP) read?
The oligomerization was “little oligomerization”.

Reference: paper PMC4596477, “Interaction of Myosin Phosphatase Target Subunit (MYPT1) with Myosin Phosphatase-RhoA Interacting Protein (MRIP): A Role of Glutamic Acids in the Interaction” (PLoS ONE, 2015)
